± gives the standard deviation of the averaged measurements.
Test system: ATP
Experiment: switch fluorescence ratio, 500 uM ATP over buffer (Cy3 cluster intensity, sum of 5 cycles each) (fold (ratio)); higher = stronger signal-on switching upon ATP binding; sequences stand for … in TCGTCGGCAGCGTCAGATGTGTATAAGAGACAGTTTTTTTTTTTTTTTTTTTTTTTTT…TC
Conditions: aptamer strand: ATP DNA aptamer (quencher-CACCTGGGGGAGTATTGCGGAGGAAGG + anchor), 100 nM annealed; ATP concentration: 500 uM
In short: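 Clusters carrying Cy3-labelled switching strands on a modified Illumina MiSeq flow-cell were annealed to 100 nM quencher-labelled ATP aptamer and imaged in selection buffer. They were imaged again after 15 min with 500 uM ATP at 22 °C, over five buffer/ATP cycles with NaOH stripping and re-annealing in between. For each cluster, the fluorescence ratio is the summed Cy3 intensity of the target cycles divided by that of the buffer cycles, averaged per switch-domain sequence. Clusters outside 100-1000 RFU were left out.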
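Further: ATP exposure 15 min at 22 °C before imaging.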

Sequence: TGCGTGGGGA
- switch fluorescence ratio: 1.04 ± 0.0057

Sequence: TGCTAACGTG
- switch fluorescence ratio: 0.977 ± 0.0057

Sequence: TGCTAGGAG
- switch fluorescence ratio: 0.995 ± 0.043

Sequence: TGCTAGTACC
- switch fluorescence ratio: 1.054 ± 0.0036

Sequence: TGCTATCATT
- switch fluorescence ratio: 1.08 ± 0.12

Sequence: TGCTCATAGC
- switch fluorescence ratio: 1.01 ± 0.021

Sequence: TGCTCCAGTC
- switch fluorescence ratio: 1.094 ± 0.0067

Sequence: TGCTCCGGAG
- switch fluorescence ratio: 1.018 ± 0.006

Sequence: TGCTCCTGTA
- switch fluorescence ratio: 1 ± 0.024

Sequence: TGCTCGGCGT
- switch fluorescence ratio: 0.99846 ± 0.00041

Sequence: TGCTCTAGGA
- switch fluorescence ratio: 1.001 ± 0.0042

Sequence: TGCTGAAGAT
- switch fluorescence ratio: 1.003 ± 0.0067

Sequence: TGCTGAGTAG
- switch fluorescence ratio: 0.9785 ± 0.0036

Sequence: TGCTGCAGTT
- switch fluorescence ratio: 0.982 ± 0.055

Sequence: TGCTGGAGGA
- switch fluorescence ratio: 1.038 ± 0.006

Sequence: TGCTGGATTT
- switch fluorescence ratio: 0.991 ± 0.016

Sequence: TGCTGGCATA
- switch fluorescence ratio: 1.18 ± 0.29

Sequence: TGCTGGCCTG
- switch fluorescence ratio: 1.01 ± 0.019

Sequence: TGCTGGGGAT
- switch fluorescence ratio: 1.009 ± 0.0015

Sequence: TGCTGGTCTC
- switch fluorescence ratio: 1 ± 0.015

Sequence: TGCTGGTCTG
- switch fluorescence ratio: 1.02 ± 0.047

Sequence: TGCTGTATTC
- switch fluorescence ratio: 0.967 ± 0.041

Sequence: TGCTGTTCTC
- switch fluorescence ratio: 0.995 ± 0.018

Sequence: TGCTTAGTC
- switch fluorescence ratio: 1.01 ± 0.022

Sequence: TGCTTCATAA
- switch fluorescence ratio: 1.01 ± 0.048

Sequence: TGCTTGAGTC
- switch fluorescence ratio: 1.009 ± 0.0027

Sequence: TGCTTGGGGC
- switch fluorescence ratio: 0.99 ± 0.059

Sequence: TGCTTGTCTC
- switch fluorescence ratio: 1 ± 0.013

Sequence: TGCTTTAGCG
- switch fluorescence ratio: 1.0155 ± 0.00011

Sequence: TGCTTTCATG
- switch fluorescence ratio: 1.01 ± 0.027

Sequence: TGCTTTCTTC
- switch fluorescence ratio: 1.15 ± 0.31

Sequence: TGCTTTGTGT
- switch fluorescence ratio: 0.978 ± 0.025

Sequence: TGCTTTTAGG
- switch fluorescence ratio: 0.996 ± 0.017

Sequence: TGCTTTTCTT
- switch fluorescence ratio: 0.996 ± 0.018

Sequence: TGCTTTTTA
- switch fluorescence ratio: 0.971 ± 0.051

Sequence: TGGAAAAGCT
- switch fluorescence ratio: 1.06 ± 0.034

Sequence: TGGAAAAGGT
- switch fluorescence ratio: 1.0134 ± 0.00089

Sequence: TGGAAAATTC
- switch fluorescence ratio: 1.019 ± 0.0078

Sequence: TGGAAAGTAC
- switch fluorescence ratio: 1.28 ± 0.095

Sequence: TGGAAGATGG
- switch fluorescence ratio: 1.01 ± 0.03

Sequence: TGGAAGGGCT
- switch fluorescence ratio: 1.052 ± 0.0058

Sequence: TGGAAGGTTA
- switch fluorescence ratio: 1.01 ± 0.025

Sequence: TGGAAGTCGG
- switch fluorescence ratio: 0.984 ± 0.022

Sequence: TGGACACTGC
- switch fluorescence ratio: 1.02 ± 0.011

Sequence: TGGACAGACA
- switch fluorescence ratio: 1.111 ± 0.0046

Sequence: TGGACGAATA
- switch fluorescence ratio: 1.39 ± 0.29

Sequence: TGGACGAGAG
- switch fluorescence ratio: 1.01 ± 0.019

Sequence: TGGACGGAAG
- switch fluorescence ratio: 0.984 ± 0.018

Sequence: TGGAGAAGTA
- switch fluorescence ratio: 1.09 ± 0.2

Sequence: TGGAGCCTTT
- switch fluorescence ratio: 1.1 ± 0.18

Sequence: TGGAGCGGGA
- switch fluorescence ratio: 1 ± 0.022

Sequence: TGGAGGTCGC
- switch fluorescence ratio: 1.01 ± 0.049

Sequence: TGGAGGTCTA
- switch fluorescence ratio: 1 ± 0.018

Sequence: TGGAGGTTAG
- switch fluorescence ratio: 1.02 ± 0.034

Sequence: TGGAGGTTAT
- switch fluorescence ratio: 0.9935 ± 0.0081

Sequence: TGGAGTAAAA
- switch fluorescence ratio: 1.03 ± 0.053

Sequence: TGGAGTATTT
- switch fluorescence ratio: 0.9525 ± 0.005

Sequence: TGGAGTGGGT
- switch fluorescence ratio: 1.01 ± 0.011

Sequence: TGGAGTTAGG
- switch fluorescence ratio: 0.995 ± 0.013

Sequence: TGGAGTTGGT
- switch fluorescence ratio: 0.987 ± 0.047

Sequence: TGGATATTTT
- switch fluorescence ratio: 0.993 ± 0.044

Sequence: TGGATCAATT
- switch fluorescence ratio: 1.01 ± 0.011

Sequence: TGGATCAGTG
- switch fluorescence ratio: 0.993 ± 0.046

Sequence: TGGATGAAGA
- switch fluorescence ratio: 1.025 ± 0.0078

Sequence: TGGATGGCGT
- switch fluorescence ratio: 1.101 ± 0.0046

Sequence: TGGATGTCAT
- switch fluorescence ratio: 1.07 ± 0.059

Sequence: TGGATTAAGG
- switch fluorescence ratio: 1.03 ± 0.033

Sequence: TGGATTGGGC
- switch fluorescence ratio: 0.973 ± 0.038

Sequence: TGGATTGTTT
- switch fluorescence ratio: 0.994 ± 0.03

Sequence: TGGCAAAGTT
- switch fluorescence ratio: 0.985 ± 0.013

Sequence: TGGCAATGAA
- switch fluorescence ratio: 1.28 ± 0.35

Sequence: TGGCACAGAG
- switch fluorescence ratio: 1 ± 0.022

Sequence: TGGCAGCAGT
- switch fluorescence ratio: 1.09 ± 0.019

Sequence: TGGCAGTTTT
- switch fluorescence ratio: 1.02 ± 0.013

Sequence: TGGCATCTGT
- switch fluorescence ratio: 0.972 ± 0.03

Sequence: TGGCATTTCC
- switch fluorescence ratio: 1.18 ± 0.11

Sequence: TGGCCCTTGG
- switch fluorescence ratio: 1 ± 0.054

Sequence: TGGCCGATGG
- switch fluorescence ratio: 0.986 ± 0.052

Sequence: TGGCCGGGAT
- switch fluorescence ratio: 0.996 ± 0.021

Sequence: TGGCCGTGGC
- switch fluorescence ratio: 1.03 ± 0.05

Sequence: TGGCCTATCC
- switch fluorescence ratio: 1.17 ± 0.04

Sequence: TGGCGAATTA
- switch fluorescence ratio: 0.978 ± 0.026

Sequence: TGGCGCACGG
- switch fluorescence ratio: 0.953 ± 0.017

Sequence: TGGCGCATAA
- switch fluorescence ratio: 1.25 ± 0.059

Sequence: TGGCGCCATT
- switch fluorescence ratio: 1 ± 0.072

Sequence: TGGCGCCGGT
- switch fluorescence ratio: 0.995 ± 0.01

Sequence: TGGCGGAACA
- switch fluorescence ratio: 1.02 ± 0.017

Sequence: TGGCGGATAT
- switch fluorescence ratio: 1.06 ± 0.1

Sequence: TGGCGGTTAG
- switch fluorescence ratio: 1.01 ± 0.019

Sequence: TGGCGTCTGA
- switch fluorescence ratio: 1 ± 0.013

Sequence: TGGCTAGGAC
- switch fluorescence ratio: 1.01 ± 0.04

Sequence: TGGCTATTGT
- switch fluorescence ratio: 0.9824 ± 0.0044

Sequence: TGGCTCTGAG
- switch fluorescence ratio: 0.9973 ± 0.0028

Sequence: TGGCTGACTT
- switch fluorescence ratio: 1.01 ± 0.016

Sequence: TGGCTGTGGG
- switch fluorescence ratio: 0.991 ± 0.016

Sequence: TGGCTTAGGG
- switch fluorescence ratio: 0.98975 ± 0.00065

Sequence: TGGCTTCGGC
- switch fluorescence ratio: 0.9979 ± 0.0053

Sequence: TGGCTTGAGT
- switch fluorescence ratio: 1.12 ± 0.19

Sequence: TGGCTTGCG
- switch fluorescence ratio: 1.01 ± 0.04

Sequence: TGGGAAAAAT
- switch fluorescence ratio: 0.994 ± 0.04

Sequence: TGGGAAAGTC
- switch fluorescence ratio: 0.993 ± 0.026

Sequence: TGGGAAATAT
- switch fluorescence ratio: 0.9726 ± 0.0072

Sequence: TGGGAAATT
- switch fluorescence ratio: 1.19 ± 0.19

Sequence: TGGGAACGAT
- switch fluorescence ratio: 1.011 ± 0.0034

Sequence: TGGGAAGAGG
- switch fluorescence ratio: 1.01 ± 0.026

Sequence: TGGGAAGGCG
- switch fluorescence ratio: 0.983 ± 0.012

Sequence: TGGGAAGGTG
- switch fluorescence ratio: 1.7 ± 0.33

Sequence: TGGGAAGTCA
- switch fluorescence ratio: 0.991 ± 0.012

Sequence: TGGGAAGTGT
- switch fluorescence ratio: 0.9621 ± 0.0013

Sequence: TGGGAAGTTC
- switch fluorescence ratio: 1.04 ± 0.046

Sequence: TGGGAAGTTT
- switch fluorescence ratio: 0.978 ± 0.013

Sequence: TGGGAATTGG
- switch fluorescence ratio: 0.981 ± 0.012

Sequence: TGGGACAGGC
- switch fluorescence ratio: 0.965 ± 0.089

Sequence: TGGGACCGTC
- switch fluorescence ratio: 1.052 ± 0.0042

Sequence: TGGGACGCCG
- switch fluorescence ratio: 1.01 ± 0.015

Sequence: TGGGACGTTA
- switch fluorescence ratio: 1.04 ± 0.036

Sequence: TGGGACGTTG
- switch fluorescence ratio: 0.995 ± 0.014

Sequence: TGGGACTAGT
- switch fluorescence ratio: 1.02 ± 0.059

Sequence: TGGGAGAAGG
- switch fluorescence ratio: 1.02 ± 0.057

Sequence: TGGGAGAGCG
- switch fluorescence ratio: 0.973 ± 0.016

Sequence: TGGGAGGTAC
- switch fluorescence ratio: 1.24 ± 0.3

Sequence: TGGGAGGTTA
- switch fluorescence ratio: 0.965 ± 0.025

Sequence: TGGGAGGTTT
- switch fluorescence ratio: 1.05 ± 0.18

Sequence: TGGGAGTTAG
- switch fluorescence ratio: 0.943 ± 0.03

Sequence: TGGGATAATG
- switch fluorescence ratio: 1.012 ± 0.0042

Sequence: TGGGATACGA
- switch fluorescence ratio: 4.47 ± 0.82

Sequence: TGGGATAGAT
- switch fluorescence ratio: 0.996 ± 0.027

Sequence: TGGGATAGGC
- switch fluorescence ratio: 0.991 ± 0.032

Sequence: TGGGATCGCC
- switch fluorescence ratio: 1.02 ± 0.028

Sequence: TGGGATGATG
- switch fluorescence ratio: 1.008 ± 0.0095

Sequence: TGGGATGCAA
- switch fluorescence ratio: 1.04 ± 0.035

Sequence: TGGGATGCAT
- switch fluorescence ratio: 0.991 ± 0.034

Sequence: TGGGATGTGG
- switch fluorescence ratio: 0.986 ± 0.019

Sequence: TGGGATGTTC
- switch fluorescence ratio: 0.989 ± 0.031

Sequence: TGGGATTATG
- switch fluorescence ratio: 0.976 ± 0.0098

Sequence: TGGGATTTGG
- switch fluorescence ratio: 0.98432 ± 0.00062

Sequence: TGGGATTTGT
- switch fluorescence ratio: 0.9881 ± 0.0029

Sequence: TGGGCAACTC
- switch fluorescence ratio: 1.06 ± 0.021

Sequence: TGGGCAAGTT
- switch fluorescence ratio: 1.04 ± 0.044

Sequence: TGGGCCAGTT
- switch fluorescence ratio: 0.981 ± 0.035

Sequence: TGGGCCCATT
- switch fluorescence ratio: 1.02 ± 0.076

Sequence: TGGGCCGGGG
- switch fluorescence ratio: 0.989 ± 0.019

Sequence: TGGGCCGGTG
- switch fluorescence ratio: 1.04 ± 0.05

Sequence: TGGGCCGGTT
- switch fluorescence ratio: 1.05 ± 0.099

Sequence: TGGGCCTATT
- switch fluorescence ratio: 0.976 ± 0.063

Sequence: TGGGCCTCCA
- switch fluorescence ratio: 1 ± 0.036

Sequence: TGGGCGAAGG
- switch fluorescence ratio: 0.9702 ± 0.0071

Sequence: TGGGCGAGAG
- switch fluorescence ratio: 1.02 ± 0.034

Sequence: TGGGCGCCGG
- switch fluorescence ratio: 1 ± 0.013

Sequence: TGGGCGTGTG
- switch fluorescence ratio: 1.02 ± 0.017

Sequence: TGGGCGTTCT
- switch fluorescence ratio: 1.03 ± 0.081

Sequence: TGGGCTATAG
- switch fluorescence ratio: 1.03 ± 0.032

Sequence: TGGGCTATGC
- switch fluorescence ratio: 0.986 ± 0.059

Sequence: TGGGCTCCGG
- switch fluorescence ratio: 1 ± 0.031

Sequence: TGGGGAAAAA
- switch fluorescence ratio: 1.07 ± 0.11

Sequence: TGGGGAAACC
- switch fluorescence ratio: 2.35 ± 2.3

Sequence: TGGGGAAGCG
- switch fluorescence ratio: 0.988 ± 0.011

Reference: the supplement of paper PMC10126150
